The source of these data is US7628975B2, “Compositions and methods for detecting and quantifying COX-2 activity and 2-arachidonylgycerol metabolites” (Vanderbilt University, priority 2000, dated 2009).

One data set concerns RAW264.7 cells. Description: Exogenous 2-AG metabolism to PGD2-G by RAW264.7 cells (LC/MS). The class given is cell-based, murine. As to conditions: inhibitor 3 μM, activated RAW264.7 cells, 2-AG 20 μM.
The conditions of data set [1]: buffer.
The target of another data set is T1, COX-2 (Homo sapiens, UniProt P35354).
T1 sequence (P35354 18-604): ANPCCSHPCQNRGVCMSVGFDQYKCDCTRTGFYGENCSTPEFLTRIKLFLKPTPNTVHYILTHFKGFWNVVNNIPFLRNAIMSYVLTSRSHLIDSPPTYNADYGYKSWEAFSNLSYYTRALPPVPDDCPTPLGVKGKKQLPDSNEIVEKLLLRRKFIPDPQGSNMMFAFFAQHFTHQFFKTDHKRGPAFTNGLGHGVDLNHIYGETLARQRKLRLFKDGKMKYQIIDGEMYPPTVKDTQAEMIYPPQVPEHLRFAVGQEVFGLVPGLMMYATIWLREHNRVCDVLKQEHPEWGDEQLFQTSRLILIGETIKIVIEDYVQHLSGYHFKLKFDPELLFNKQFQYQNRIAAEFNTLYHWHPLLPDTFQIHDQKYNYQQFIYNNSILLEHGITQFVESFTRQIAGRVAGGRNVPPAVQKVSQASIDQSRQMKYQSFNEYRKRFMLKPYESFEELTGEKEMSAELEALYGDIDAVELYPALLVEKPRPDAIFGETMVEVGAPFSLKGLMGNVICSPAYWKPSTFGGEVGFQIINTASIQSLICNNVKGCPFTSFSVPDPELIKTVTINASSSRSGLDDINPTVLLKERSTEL
Description: HPLC/UV quantification of products in base-treated COX-2/2-AG incubation mixtures. As to conditions: COX-2 oxygenation of 2-AG, n=5. The class given is biochemical. The procedure: Estimates of relative amounts of the individual PG-Gs can be made by reversed-phase HPLC with UV detection. […] Quantification of PGE2-G and HETE-Gs is accomplished by HPLC/UV analysis of base-treated COX-2/2-AG incubation mixtures using 5-HETE as an internal standard. PGE2-G is the major product of oxygenation (PGE2-G/HETE-G=4.0±0.1, n=5) and 11-HETE-G is more abundant than 15-HETE-G (11-HETE-G/15-HETE-G=3.4±0.1, n=5). HETE-G regiochemistry is confirmed by mass spectrometry of saponified, HPLC-purified HETE products.

Substrate in data set [2]: CCCCC/C=C\C/C=C\C/C=C\C/C=C\CCCCOC(CO)CO
As to the kind of experiment: Steady-state kinetics of COX-2 mediated oxygenation (O2 uptake), human enzyme. The class given is biochemical. As to conditions: other: hCOX-2, substrate oxygenation. Here is the method: (§1) The ability of COX-1 and COX-2 to metabolize different substrates, such as 2-AG and arachidonic acid (AA) can be determined, for example, by measuring relative oxygen uptake. FIG. 9 is a representative oxygen uptake curve for 100 μM 2-AG or AA treated with 150 nM purified COX-2 or 150 nM ovine COX-1. The horizontal bar represents 20-seconds. The vertical bar represents 10 μM O2 uptake.

Substrate in data set [3]: CCCCC/C=C\C/C=C\C/C=C\C/C=C\CCCC(=O)O
The description is as above. The class given is biochemical. Particulars: other: hCOX-2, substrate oxygenation. Here is the method:
as §1

Substrate in data set [4]: CCCCC/C=C\C/C=C\C/C=C\C/C=C\CCCCOC(CO)CO
As to the kind of experiment: Steady-state kinetics of COX-2 mediated oxygenation (O2 uptake), murine enzyme. The class given is biochemical. Particulars: other: mCOX-2, substrate oxygenation. Here is the method: as §1

Substrate in data set [5]: CCCCC/C=C\C/C=C\C/C=C\C/C=C\CCCC(=O)O
The data set is described as above. Type of data set: biochemical. As to conditions: other: mCOX-2, substrate oxygenation. The procedure:
as §1

Turning to `COc1ccc2c(c1)c(CC(=O)NCCc1ccccc1)c(C)n2C(=O)c1ccc(Cl)cc1` [indomethacin phenethylamide, 2-[1-(4-chlorobenzoyl)-5-methoxy-2-methyl-1H-indol-3-yl]-N-phenethylacetamide], in the data set on RAW264.7 cells, the “Effect on PGD2-G biosynthesis” value was “inhibited”.

Take `CCCCC[C@H](O)/C=C/[C@@H]1[C@@H](C/C=C\CCCC(=O)OC(CO)CO)[C@@H]2C[C@H]1OO2` [PGH2-G, prostaglandin H2-glycerol ester]: the “half-life in aqueous solution” value in data set [1] was “approximately 20 seconds”.

For `COc1ccc2c(c1)c(CC(=O)O)c(C)n2C(=O)c1ccc(Cl)cc1` [indomethacin], in the data set on RAW264.7 cells, the “Effect on PGD2-G biosynthesis” value is “inhibited”.

As to `CCCCCC=CC=CC(O)CC=CCC=CCCCC(=O)OC(CO)CO` (centres unmarked) [11-HETE-G, 11-hydroxy-eicosatetranoic glycerol ester], the 11-HETE-G/15-HETE-G product ratio at COX-2 is 3.4±0.1.

`CCCCC[C@H](O)/C=C/[C@H]1[C@H](O)CC(=O)[C@@H]1C/C=C\CCCC(=O)OCC(O)CO` (some centres unmarked) [PGE2-G, prostaglandin E2-glycerol ester]: at COX-2, the PGE2-G/HETE-G product ratio came out at 4.0±0.1.

B1: hCOX-2 (Homo sapiens) (protein)
chain: T1 sequence (P35354 18-604)
One may read the Km as the substrate concentration at which the rate is half of its maximum. Usually kcat stands for the number of substrate molecules converted per active site and unit of time at saturation. Usually kcat/Km stands for the second-order rate constant that governs catalysis at low substrate concentration. As to B1, in data set [2], the Km stood at 4.4 ± 0.9 µM, the kcat was 17.4 ± 1.1 s⁻¹ and the kcat/Km is 4e+06 M⁻¹ s⁻¹. For the same molecule, in data set [3], the Michaelis-Menten constant (Km) came out at 6.1 ± 0.6 µM, the kcat worked out at 14.7 ± 0.5 s⁻¹ and the kcat/Km amounted to 2.4e+06 M⁻¹ s⁻¹.

B2: mCOX-2 (Mus musculus) (protein)
chain: ANPCCSNPCQNRGECMSTGFDQYKCDCTRTGFYGENCTTPEFLTRIKLLLKPTPNTVHYILTHFKGVWNIVNNIPFLRSLIMKYVLTSRSYLIDSPPTYNVHYGYKSWEAFSNLSYYTRALPPVADDCPTPMGVKGNKELPDSKEVLEKVLLRREFIPDPQGSNMMFAFFAQHFTHQFFKTDHKRGPGFTRGLGHGVDLNHIYGETLDRQHKLRLFKDGKLKYQVIGGEVYPPTVKDTQVEMIYPPHIPENLQFAVGQEVFGLVPGLMMYATIWLREHNRVCDILKQEHPEWGDEQLFQTSRLILIGETIKIVIEDYVQHLSGYHFKLKFDPELLFNQQFQYQNRIASEFNTLYHWHPLLPDTFNIEDQEYSFKQFLYNNSILLEHGLTQFVESFTRQIAGRVAGGRNVPIAVQAVAKASIDQSREMKYQSLNEYRKRFSLKPYTSFEELTGEKEMAAELKALYSDIDVMELYPALLVEKPRPDAIFGETMVELGAPFSLKGLMGNPICSPQYWKPSTFGGEVGFKIINTASIQSLICNNVKGCPFTSFNVQDPQPTKTATINASASHSRLDDINPTVLIKRRSTEL
Take B2: in data set [4], the Km is 4.7 ± 0.8 µM, the catalytic constant (kcat) is 11.1 ± 0.7 s⁻¹ and the kcat/Km is 2.3e+06 M⁻¹ s⁻¹. Moreover, in data set [5], the Km came out at 8.2 ± 1.6 µM, the kcat is 20.5 ± 1.6 s⁻¹ and the kcat/Km came to 2.5e+06 M⁻¹ s⁻¹.
